How the values were obtained:
[1] = target: T1, SARS-CoV-2 nucleocapsid phosphoprotein (SARS-CoV-2, UniProt P0DTC9 1-419); test: ELISA (FIG. 3)
[2] = target: T1, SARS-CoV-2 nucleocapsid phosphoprotein; test: Western blot on NP denatured with DTT and heat (FIG. 4)

B1: antibody 9-8 (antibody, V domains shown)
VH: EVQLVESGGGLVQPGGSLRLSCAASGFTFSTYWMSWVRQAPGKGLEWVANIKQDGSEKYYVDSVKGRFTISRDNAKNSLYLQMNSLRAEDTAVYYCARYSLDYYDTSGSFDYWGQGTLVAVSS
VL: SYELTQPPSVSVSPGQTARITCSGDALPKKYAYWYQQKSGQAPVLVIYEDSKRPSGIPERFSGSSSGTMATLTISGAQVEDEADYYCYSTDSSGNHRGVFGGGTQLTVL
[1]
  binding result: binds

B2: antibody 9-9 (antibody, V domains shown)
VH: EVQLVESGGGLVQPGGSLRLSCAASGFIFSNYWMSWVRQAPGKGLEWVANTKQDDSEKYYVDAVKGRFTISRDNAKNSLYLQMNSLRADDTAVYYCAREVRIAVTGTSRDEDYSYNGMDVWGQGTTVTVSS
VL: SYELTQPPSVSVSPGQTARITCSADALAKQYAYWYQQKPGQAPVLVIFKDSERPSGIPERFSGSSSGTTVTLTISRVQAEDEADYYCQSADSSGYYWAFGGGTKLTVL
[2]
  binding result: binds

B3: antibody 9-29 (antibody, V domains shown)
VH: EVQLVQSGAEVKKSGESLKISCKGSGYSFTNYWIGWVRQMPGKGLEWMGIIYPGDSDTRHSPSFQGQVTISADKSLRTAYLQWSSLKASDTAIYYCARGADGYSSYFDYWGQGTLVTVSS
VL: NFMLTQPHSVSESPGKTVIISCTRSSGSIASDYVQWYQQRPGSVPTTVIYEDNERPSGVPDRFSGSIDSSSNSASLTISGLKTEDEADYYCQSYDSSVQVFGGGTKLTVL
[2]
  binding result: binds
